Experimental data taken from paper PMC12732243.

Molecular target: human FSH receptor (human) (UniProt P23945)
Sequence (P23945 18-695): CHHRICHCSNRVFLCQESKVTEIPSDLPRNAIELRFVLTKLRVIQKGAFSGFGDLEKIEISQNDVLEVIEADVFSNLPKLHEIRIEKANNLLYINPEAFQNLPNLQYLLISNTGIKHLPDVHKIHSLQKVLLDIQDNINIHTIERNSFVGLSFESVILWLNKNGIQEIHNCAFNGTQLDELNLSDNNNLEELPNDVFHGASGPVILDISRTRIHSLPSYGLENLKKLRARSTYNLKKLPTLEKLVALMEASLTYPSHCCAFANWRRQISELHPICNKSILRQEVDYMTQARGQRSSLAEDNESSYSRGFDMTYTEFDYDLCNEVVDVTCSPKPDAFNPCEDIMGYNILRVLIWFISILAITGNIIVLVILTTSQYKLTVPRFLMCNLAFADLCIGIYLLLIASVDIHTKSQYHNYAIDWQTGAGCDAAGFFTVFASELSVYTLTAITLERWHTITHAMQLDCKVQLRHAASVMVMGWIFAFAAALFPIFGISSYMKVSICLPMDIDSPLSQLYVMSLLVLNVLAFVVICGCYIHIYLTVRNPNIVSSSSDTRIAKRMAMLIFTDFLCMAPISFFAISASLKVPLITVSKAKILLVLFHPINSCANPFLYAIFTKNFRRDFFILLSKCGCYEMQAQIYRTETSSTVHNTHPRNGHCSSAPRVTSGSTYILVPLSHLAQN

cAMP accumulation (HTRF) in HEK 293 cells expressing hFSHR, 30 min at room temperature with 0.5 mM IBMX; EC50 of the dose-response curve: 4.9 µL/mL
Substance: recombinant monkey single-chain FSHβ/α (from UniProt Q6EV79 19-129; Q9BEH3 25-120) (ligand)
